Source: the DeepSol protein solubility set

Assay: soluble on expression in E. coli; label from the status in PepcDB or PDB records
In the case of “DITEIEEAMNRQRVAGRVFEASQDGLIVLNHKGVITMVNPAVTKLVGLEIDQLVGQSFIQTIRWRKLQEMMPSIIESIENYGVWQGEVIEQNHLGLLVPMFARVNRIVKCENNGFYDLVIILTD”, the “soluble on expression in E. coli” value is reported as “not soluble”.
For “DITVYNGQHKEAATAVAKAFEQETGIKVTLNSGKSEQLAGQLKEEGDKTPADVFYTELTATFADLSEAGLLAPISEQTIQQTAQKGVPLAPKKDWIALSGRSRVVVYDHTKLSEKDMEKSVLDYATPKWKGKIGYVSTSGAFLEQVVALSKMKGDKVALNWLKGLKENGKLYAKNSVALQAVENGEVPAALINNYYWYNLAKEKGVENLKSRLYFVRHQDPGALVSYSGAAVLKASKNQAEAQKFVDFLASKKGQEALVAARAEYPLRADVVSPFNLEPYEKLEAPVVSATTAQDKEHAIKLIEEAGLK”, the “soluble on expression in E. coli” value was “soluble”.
For “DKEVVVLGSGDPMFHGIGSTLHRLLPNHSMTVIPQPSSASLACARLGWALDTTSVYSLVTHPIAHLTLAIEQGDRFLVLGRNHESPHEICEHLISLGQSTAEVTVLSDIGSVSETITSGAATDYPSNDSALNVIAIRPLAATRSRVPGLPDSEYVTDGQLTKQHVRALAISALAPKPHETLWDIGGGSGSIAIEWLRSTPQTTAVCFEISEERRERILSNAINLGVSDRIAVQQGAPRAFDDVPDNPD”, the “soluble on expression in E. coli” value was “not soluble”.
For “DLAKELFTHKGSGTLIRRGERVIRATTWKDLDLPRLQHLIQSSFRRTLIPHYFETTPLLRAYVSENYRAAVILTKLGNVPYLDKFAVLDDAQGEGLGRAVWSIMREETPQLFWRSRHNNQANAFYYAESDGYYKQDHWKIFWNGLHHFQQIQQCVAHCTQH”, the “soluble on expression in E. coli” value was “not soluble”.
For “DLLSWFKGNDRPPAPAGKALEFSKPAAWQNNLPLTPADKVSGYNNFYEFGLDKADPAANAGSLKTDPWTLKISGEVAKPLTLDHDDLTRRFPLEERIYRMRCVEAWSMVVPWIGFPLHKLLALAEPTSNAKYVAFETIYAPEQMPGQQDRFIGGGLKYPYVEGLRLDEAMHPLTLMTVGVYGKALPPQNGAPVRLIVPWKYGFKGIKSIVSIKLTRERPPTTWNLAAPDEYGFYANVNPYVDHPRWSQATERFIGSGGILDVQRQPTLLFNGYADQVASLYRGLDLRENFLEHHHHHH”, the “soluble on expression in E. coli” value was “soluble”.
For “DLQTLLDKSFNLIISTLDAKYCKILKLLNDGNFLVEAGVGWKPEDTGKVIKREEASVAGYTVLSKKPINIEDLDKKGSIERMGLYGYSEITHGISVLVGSLEKPYGVLAVHSTRKEKFTKEDACFLKGIASMLSLALERNKVESTL”, the “soluble on expression in E. coli” value was “not soluble”.
For “DNFNQQKKKFGGQDIFMTEEQKKYYNAMKKLGSKKPQKPIPRPANKFQGMVFD”, the “soluble on expression in E. coli” value was “soluble”.
In the case of “DPAAADRAEELRIQNLLKQLQQAVTNNDLTIYYQPIMSLQQQSLELYQIYIGLHGDEELISSVTLLEIAKKRELIAQIDRWVVARAIAQIGERQRAGHTTHLLVQIDSASFTDPQLLTMLRTELAAHHVRGEQLWLQTPESKVFTHLYNAQQFLSEISVQGCKMGLEQFGTGLDSFQLLTHFKPAFLKLDRNLTQDINSNHDSLEKIREITSRAQDNGIATFAEFVTDSTSMSALFKVGVDYVQGDFVAPI”, the “soluble on expression in E. coli” value is reported as “not soluble”.
For “DPATVFRLVAAEALTLTGADGTLVAVPADPDASAAEELVIVEVAGAVPAEVEASAIPVQDNAIGQAFRDRAPRRLDVLDGPGLGGPALVLPLRATDTVAGVLVAVQGSGARPFTAEQLEMMTGFADQAAVAWQLASSQRRMSELDILAD”, the “soluble on expression in E. coli” value was “soluble”.
In the case of “DPDQFRAIIESPEGAGHVGYQYRRNTGSTMRMVSDVLDERVSLWDFHCDPSGNVIQPGPNVDSRQYLQAAIDYVSSNGGGTITIPAGYTWYLGSYGVGGIAGHSGIIQLRSNVNLNIEGRIHLSPFFDLKPFQVFVGFDNGDPASSGNLENCHIYGHGVVDFGGYEFGASSQLRNGVAFGRSYNCSVTGITFQNGDVTWAITLGWNGYGSNCYVRKCRFINLVNSSVNADHSTVYVNCPYSGVESCYFSMSSSFARNIACSVELHQHDTFYRGSTVNGYCRGAYVVMHAAEAAGAGSYAYNMQVENNIAVIYGQFVILGSDVTATVSGHLNDVIVSGNIVSIGERAAFSAPFGAFIDIGPDNSGASNVQDIQRVLVTGNSFYAPANITDSAAITLRANLNGCTFIANNFDCRYMVYNAPGTTSPVVQNLVWDKSNVIGGTHANQRAGQNLFDMQFASVVNSTIEVQLSCEDLSMFSCILFPASCQLSYSKITVDSAWTKSMSNTAVFEGNQQAGANVYVSYPATVNLTSYNTQGAVPFFSTDTNYAWVTSAYSLSINENLDFSPPATYTNKANGQLVGVGYNEIGGVRSVSVRLMLQRQV”, the “soluble on expression in E. coli” value is reported as “soluble”.
For “DPLQILGQLTGQLEQQQTAPSGTSAKAPPANDQQAEFVASILGDTEDTWKALFAQAGKQYRDPKLVLFSGQVNSACGFASAAVGPFYCPADQRVYLDMSFFREMETRFAAAGDFAQAYVIAHEIGHHVQTLLGVSAKVDAARRAGQRMEGDNGLLVRQELQADCLAGVWAYQAQKRLNWLEPGDVEEALNAANAIGDDRLQQQGRGRVVPDSFTHGTSAQRVRWFKIGFAEGEVNRCDTF”, the “soluble on expression in E. coli” value was “not soluble”.
With “DQVSSLSSKYAVRLYEIIISWRAAGKTPMFSTMELRERLGMMPDEYQKMELFKRKVLDFAVKQINDKTDISITYEQHKEGRKIVGFTFSILHKIGSKDIPLENQSELFAGMTDLEAGTIRVRAEAYIASLIAKGQNVTKAHRLNILKKAVEERWGFEDVAKDNGAKNPENKNAKVVLNEWEKISNGTRFKDKDGTIWVKDSGMLRTEGTNRWIADSQIAKLFPMLTVMVEEGI” the “soluble on expression in E. coli” value was “not soluble”.
For “DVLAVTSCPSGVAHTFLAAKSLEKAACALGIKIKVETQGANGVINRITEKDIEKAKFVIFAHDVAIKEPERFRKIKVLDVTTKDAMLNATALLQARRVS”, the “soluble on expression in E. coli” value was “not soluble”.
For “DVQITQSPSYLAASPGETITLNCRASKSISKYLAWYQEKPGKTNKLLIYSGSTLQSGIPSRFSGSGSGTDFTLTISSLEPEDFAMYFCQQHNEYPYTFGGGTKLEIKRTVAAPSVFIFPPSDEQLKSGTASVVCLLNNFYPREAKVQWKVDNALQSGNSQESVTEQDSKDSTYSLSSTLTLSKADYEKHKVYACEVTHQGLSSPVTKSFNRGEC”, the “soluble on expression in E. coli” value was “soluble”.
In the case of “EDLPTARVGVDYTSDSQVGGTLDLGRRFGDNNQFGARVNLVHREGEGAIDNDKRRTTLASLGLDYRGDRFRSSLDFGYQKKTFHGGTMGVNISGVDFIPALPDNSKNYSQKWGYSDIESEFGMAKAEYDLTDSWTVYSALGGQHSHEIGTYSAPKLLNKNGDATVGRLDTNRIIDAISGMGGVRGDFNTGAISHKVNLGYAAQVHTDATAWRMSARNPTTNIYDNHDVAMPDNAYFGGNYHDPLITSRSRTQGWLLSDTLGFFNDKVLFTAAARHQKVVVRNYSNATGLEDTSSRYTQSRWMPTFGLVYKPWEQLSLYANHTEALQPGSVAPTTAANAGQSTGIAHSKQDEVGVKIDYGTIGGSLALFEIKKPNAISDTAGNYGLDGEQRNRGVEMNVFGEPMLGLRLNASTVWLDAKQTKTAEGATDGKDAIGVANFYAVLGAEYDIKPVEGLTATARVNHSGSQYADAANTKKLDSYTTLDLGLRYRMRLNADQNEMIWRVGVTNVTNEKYWSGIDDTGTYLFEGDPRTVRVSMSYDF”, the “soluble on expression in E. coli” value is reported as “not soluble”.
With “EEHTIIQAEFYLLPDKRGEFMFDFDGDEIFHVDIEKSETIWRLEEFAKFASFEAQGALANIAVDKANLDVMKERSNNTPDANVAPEVTVLSRSPVNLGEPNILICFIDKFSPPVVNVTWLRNGRPVTEGVSETVFLPRDDHLFRKFHYLTFLPSTDDFYDCEVDHWGLEEPLRKHWEFEE” the “soluble on expression in E. coli” value was “soluble”.
With “EGEPIVEYQVKDLLYDQGVRVELHGKDLVSRVGEMTLDKVYYAFSKFFGLDIVTDYLEVPQDIPPRPPALCPGCPHRSSFIDLKKAITMASFKPNETFISG” the “soluble on expression in E. coli” value was “not soluble”.
With “EGKKIVFISDIHHGPYFERERVADLVRKVNELEPDIIILGGDYVSGDVGYIGACFEELSRLKADMGIFGVTGNHDEWTDYNLTVKCMENAGITVLSNRAEWLEIGDDKIKIAGVDWSTDWYFNSEPYVDPLIKDAEENDFVILVSHTPDLAEELTTDKVDLVLSGHTHGGQITFFGLWAPYVPSFYGQKYRTGIVKTDKTMALVSNGVGNTFLPIRFF” the “soluble on expression in E. coli” value was “not soluble”.
For “EHEKGQKLIKTMDQEIDEVAKIGKTIKKPKTVLFEVAALPDIYSFGNGTFLNEMIETIGAKNVLANEKGWLPVTEEAAIAAKPEVILTNVNYMKDPAKEILARKNWESVPAVQNKEVFEIDNMSSSLPNNHITKALKQMAKAVYPEEYKDLKDE”, the “soluble on expression in E. coli” value was “not soluble”.
With “EIGLLLAILLFMKRVTENTRITVATGRLDLTQTGEIAHHDEVLDIPKGVEVYEIEGPFFFGIANRFEEIMNTLGDHPDVRIIRMRHVPFMDSTGMHNLENLIKMSRKEGVSIVLSGVRKDVHEELATAGIVELLGEENVCADIQAALRQAQAIAQGA” the “soluble on expression in E. coli” value was “not soluble”.
For “EIGYYEWAIENDEMHCNSLYKKIFGFSDAHDPTYKEFTSQIFPKDLSVRNNAVQRAILVGGVYNAEYRVRHPNDELRWVKSFGKAIYDEKGKPVKLIGMILD”, the “soluble on expression in E. coli” value was “not soluble”.
For “EIVMTQSPATLSVSPGERATLSCRASQSIGNNLHWYQQKPGQAPRLLIYYASQSISGIPARFSGSGSGTEFTLTISSLQSEDFAVYYCQQSNSWPYTFGGGTKVEIK”, the “soluble on expression in E. coli” value was “soluble”.
In the case of “EKFPLVLMLEPTHLCNLACSGCGRIREYADTIQQMMSLEECLRSVDECPAPVVTITGGEPFLYTHIYELIPEVLDRGKHVYLCTNGLLLEKALENVKVHPNFYLNVHMDGLEETHDRILERKGTFKVAIEGIRKAKAKGFRVCTNTTIFKDTDLVEIEMLFSLLTDLGVDGILVAPGFDYEAVG”, the “soluble on expression in E. coli” value is reported as “not soluble”.
In the case of “EKGFKVVVLESAKVGFGATGRNGGQIVNSYSRDVDVIESRYDQNQAKALCDMIFEGGDIIRGLIDKYDINCDYKQGGLFTALNSKQLKGLEEHKKNWERYGNDQLTLLDAGEVEQAVGTKVYTGGLLDMRGGHIHPLKLALGEAAAFISLGGQIFEQSAVVSIDKGMNPVVKTAQGSVKSK”, the “soluble on expression in E. coli” value is reported as “not soluble”.
In the case of “ELLCPAGTLKSMRYAFAYGADAVYAGQPRYSLRVRNNDFDHAQLAEGIAEAHALGKRFYVVVNIAPHNAKLKTFLRDLEPVVAMGPDALIMSDPGLIMLVRQHFPQMPIHLSVQANAVNWAAVQFWRQQGLTRVILSRELSLEEIEEIRQQVPDMELEVFVHGALCMAYSGRCLLSGYINRRDPNQGTCTNACRWEYKAVEGREDELGNVVAREPTLGRGAPTEQVFLLEEGNRPGEPMAAFEDEHGTYIMNSKDLRAVQHVERLARIGVHSLKIEGRTKSHYYVARTAQVYRQAIDDAAAGKPFDRGLMDTLESLAHRGYTEGFLRRHVHDEYQNYQHGHSLSERQQFVGELTGERRDGLAEVEVKNRFQRGDSVELMTPRGNLSLRVEDLRNAAGEAIEVAPGNGHVVYLALPEGLDLCYALLMRDLQPGQDTRQPQAERSGGCAGK”, the “soluble on expression in E. coli” value is reported as “not soluble”.
For “EMRNLGGGEILHACPQESLDKPLPCIVFYHGFTSSKLVYSYFAVALAEAGFRVIMPDAPEHGARYQGDEAGRMQRFWPILQQNFREFPALREAIIAEGWLEGERLAVAGASMGGMTALGIMTHHPELNSVACLMGSGYFRSLSQTLFPSPDFDVDSLNEWDVSHQLASLARRPLLLWHGDADDVVPPEETFRLEQALRQGDLAARLTCVWQKGVRHRITPEALATTVAFFQQHL”, the “soluble on expression in E. coli” value was “not soluble”.
